The target in experiment [1] is T1, cynomolgus galectin-10-His, YRT isoform (cynomolgus).
T1 construct: also called cynoGal10-YRT; not shown: His tag
T1 chain: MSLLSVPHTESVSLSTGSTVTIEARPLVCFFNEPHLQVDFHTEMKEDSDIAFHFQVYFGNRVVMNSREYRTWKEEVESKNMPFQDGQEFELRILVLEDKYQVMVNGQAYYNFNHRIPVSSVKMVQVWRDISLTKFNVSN
As to the kind of experiment: binding ELISA (summary table). The procedure:
(§1) In a similar setup to that used during the initial screening, the relative binding properties of the 11 new scFv-human Fc clones were analyzed by ELISA. Briefly, a Maxisorp plate was coated overnight with human or cynomolgus WGS or YRT isoforms of galectin-10-His at 0.2 μg/mL and blocked with PBS 1% casein, before being incubated with a serial dilution of the scFv-human Fc fusion molecules (from 100 nM, dilution 1/5, 8 points of dilutions). After several washing steps, detection of the bound scFv-human Fc was carried out with an anti-human Fc-HRP antibody (Jackson ImmunoResearch, Catalog 109-035-008). Absorbance was measured at 450 nm (reference at 620 nm) with Tecan instrument. Finally, the raw data (OD values) were plotted on GraphPad Prism 7.01. The EC50 values of each clone, calculated with a non-linear regression (log(agonist) vs. response Variable slope (four parameters)) are reported in Table 19 below. As a positive control, clone 6F05 from the previous galectin-10 antibody panel was included.
(An ELISA detects its analyte on a solid surface through an enzyme-linked reagent.)

Experiment [2] deals with T2, human galectin-10-His (human).
T2 construct: The last M of the tag may be Met1 of galectin-10; also called humanGal10-His; hGal10
T2 chain: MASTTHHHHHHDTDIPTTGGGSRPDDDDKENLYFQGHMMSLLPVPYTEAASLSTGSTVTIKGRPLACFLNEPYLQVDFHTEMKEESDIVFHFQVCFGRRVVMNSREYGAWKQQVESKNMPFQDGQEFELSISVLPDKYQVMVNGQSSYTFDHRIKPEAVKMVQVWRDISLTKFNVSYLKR
As to the kind of experiment: binding ELISA (summary table). The procedure:
as §1

The target in experiment [3] is T1, cynomolgus galectin-10-His, YRT isoform. As to the kind of experiment: ELISA, coated antigen 0.2 ug/mL. The procedure:
as §1

The target of experiment [4] is T2, human galectin-10-His. As to the kind of experiment: ELISA, coated antigen 0.2 ug/mL. As to the method: as §1
Experiment [5] addresses T2, human galectin-10-His. Nature of the experiment: SPR Biacore T3000, scFv-human Fc captured. The procedure: (§2) The binding properties of the scFv-human Fc panel to galectin-10 were analyzed on the Biacore T3000. For this purpose, a CM5 Chip was coated with polyclonal anti-human Fc at 8000 RU, then a fixed concentration of the scFv-human Fc panel (1.5 μg/mL) were captured to reach a binding signal around 150 RU. Finally, a serial dilution of human or cynomolgus WGS isoform of galectin-10-His (serial dilution, 1 over 2 from 5 μg/mL, 6 points of dilution) was injected. Raw data were analyzed via BIA evaluation software with a blank subtraction (4-3). Finally, the kd/KD and Rmax of each scFv-human Fc to galectin-10-His was determined using the Fit Kinetics simultaneous ka/kd/Binding with mass transfer/Local Rmax on BIA evaluation software.

Experiment [6] has as its target T2, human galectin-10-His. As to the kind of experiment: SPR Biacore (summary table). As to the method:
as §2
For orientation: SPR reads the build-up and loss of mass on a sensor chip optically.

The target of experiment [7] is T3, cynomolgus galectin-10-His, WGS isoform (cynomolgus).
T3 construct: also called cynoGal10-WGS; not shown: His tag
T3 chain: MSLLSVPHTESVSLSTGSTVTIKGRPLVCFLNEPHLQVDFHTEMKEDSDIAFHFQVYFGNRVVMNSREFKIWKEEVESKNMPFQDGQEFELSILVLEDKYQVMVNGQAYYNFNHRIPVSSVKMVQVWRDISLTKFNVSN
As to the kind of experiment: binding ELISA (summary table). As to the method:
as §1

The target in experiment [8] is T3, cynomolgus galectin-10-His, WGS isoform. Nature of the experiment: ELISA, coated antigen 0.2 ug/mL. As to the method:
as §1

For experiment [9] the target is unchanged. As to the kind of experiment: SPR Biacore T3000, scFv-human Fc captured. The procedure:
as §2

Experiment [10] has the same target. Nature of the experiment: SPR Biacore (summary table). As to the method:
as §2

These results are taken from US20190367619A1 (ARGENX, published 2019).

B1: 10A06 scFv-human Fc (Fc fusion)
scFv: QVQLVESGGGLVQPGGSLRLSCAASGFTFGNYDMSWVRQAPGKGPEWVSDINSGGGSTYYADSVKGRFTISRDNAKNSLLLQMNSLKPEDTAVYYCATGYTGYYYWGQGTQVTVSSGGGGSGGGGSGGGGSQTVVTQEPSLSVSPGGTVTLTCGLSSGSVTSSNYPAWYQQTPGQAPRALIYSINSRHSGVPDRFSGSISGNKAALTITGAQAEDEADYYCTLYMGTGSNNVVFGGGTHLTVL
notes: also called 010A06; not shown: CH2-CH3 constant domains of human IgG1 (pUPEX50 scFv-Fc fusion vector)
For the molecule B1, the EC50 (commonly the concentration at which the effect is half-maximal) came out at 0.04 nM in experiment [1], 0.08 nM in the experiment with human galectin-10-His [2], 0.04 nM in experiment [3] and 0.08 nM with human galectin-10-His [4]. Also, the Bmax in experiment [3] was determined as 3 OD; in the experiment with human galectin-10-His [4], 1.2 OD. Moreover, the Kd with human galectin-10-His [5] and in the experiment with human galectin-10-His [6] was 0.3 nM in each case. The koff in the experiment with human galectin-10-His [5] and in the experiment with human galectin-10-His [6] was 0.00025 s⁻¹ in each case. The kon with human galectin-10-His [5] and with human galectin-10-His [6] was 910000 M⁻¹ s⁻¹ in each case.

B2: 7B07 scFv-human Fc (Fc fusion)
scFv: QVQLVESGGGLVQPGGSLRLSCAASGFTFRSYDMSWVRQAPGKGPEWVSAIKNGGGITYYADSVKGRFTISRDNAKNTLYLQMNSLKPEDTAVYYCATTHGIGTLGFGSWGQGTQVTVSSGGGGSGGGGSGGGGSSYELTQSASVSVALTQTAKITCDGNNIGSKSAQWYQQKPGQAPALVIYADEYRPEGIPERFSGSNSGNTATLIISGAQAEDEADYYCQVWDGSAAVFGRGTHLTVL
notes: also called 007B07; not shown: CH2-CH3 constant domains of human IgG1 (pUPEX50 scFv-Fc fusion vector)
With B2, the EC50 with human galectin-10-His [2] is 1.11 nM; in experiment [7], 0.82 nM; in the experiment with human galectin-10-His [4], 1.11 nM; in [8] it was 0.82 nM. For the same molecule, the figures for the Bmax (in [3]; with human galectin-10-His [4]; in [8]) were 0 OD, 0.6 OD and 0.6 OD, respectively. The binding result in experiment [3] is reported as “no binding (tested: serial dilution from 100 nM)”. In addition, the Kd (in general, the equilibrium constant for the complex coming apart) in the experiment with human galectin-10-His [5] was 0.8 nM; in experiment [9], 1.5 nM; with human galectin-10-His [6] it was 0.8 nM; in experiment [10], 1.5 nM. For the same molecule, the koff (commonly a measure of how fast the partners let go of each other) was 0.00124 s⁻¹ with human galectin-10-His [5], 0.0766 s⁻¹ in experiment [9], 0.00124 s⁻¹ with human galectin-10-His [6] and 0.0766 s⁻¹ in [10]. The kon (commonly a measure of how fast the partners come together) amounted to 1.5e+06 M⁻¹ s⁻¹ in the experiment with human galectin-10-His [5], 5e+07 M⁻¹ s⁻¹ in [9], 1.5e+06 M⁻¹ s⁻¹ with human galectin-10-His [6] and 5e+07 M⁻¹ s⁻¹ in experiment [10].

B3: 11F02 scFv-human Fc (Fc fusion)
scFv: ELQVVESGGGLVQPGGSLRLSCAASGFTFSTNYMNWVRQAPGKGLEWVSGITSHGARTYYADSVKGRFTISRDNSKNTLYLQMNSLKPEDTALYYCARTDHASLDAWGQGTLVTVSSGGGGSGGGGSGGGGSQTVVTQEPSLSVSPGGTVTLTCGLSSGSVTSSNYPGWYQQKPGQAPRTLIYNTNSRYSGVPNRFSGSISGNKAALTITGAQPEDEADYYCALYMGSSSYNTVFGGGTHLTVL
notes: also called 011F02; not shown: CH2-CH3 constant domains of human IgG1 (pUPEX50 scFv-Fc fusion vector)
For B3, the EC50 was found to be 0.77 nM with human galectin-10-His [2], 10.4 nM in experiment [7] and 0.77 nM in the experiment with human galectin-10-His [4]. For the same molecule, the Bmax in experiment [3] worked out at 2.5 OD; in the experiment with human galectin-10-His [4], 1.5 OD; in experiment [8], 2.5 OD. Besides, the Kd in the experiment with human galectin-10-His [5] is 5.4 nM; in experiment [9] it was 7.9 nM; with human galectin-10-His [6], 5.4 nM; in experiment [10] it was 7.9 nM. Further, the koff with human galectin-10-His [5] stood at 0.00203 s⁻¹; in [9] it was 0.00185 s⁻¹; with human galectin-10-His [6], 0.00203 s⁻¹; in [10], 0.00185 s⁻¹. Also, the kon with human galectin-10-His [5] turned out to be 370000 M⁻¹ s⁻¹; in experiment [9], 240000 M⁻¹ s⁻¹; with human galectin-10-His [6], 370000 M⁻¹ s⁻¹; in experiment [10], 240000 M⁻¹ s⁻¹.
